Laboratory results as given in patent publication US5650283.

Assays:
[1] = test system: human AhR + ARNT expressed in yeast (Homo sapiens); assay: cell_activity; settings: lacZ induction over background by betaNF or alphaNF; none with AHR or ARNT only
[2] = test system: LexA(1-202)-AHRNΔ166 chimera (synthetic construct); assay: cell_activity; settings: average lacZ induction over background, agonist dependent

Substance	activity [1]	activity [2]
DRE2-DRE3 lacZ reporter (pDRE23-Z)	12 fold	
eight LexA operator lacZ reporter (pSH18-34)		90 fold
